The term EC50 (read off the curve) denotes the concentration giving half of the maximal effect. The term Kd denotes a measure of binding affinity in units of concentration. In general, koff refers to a measure of how fast the partners let go of each other. By kon is commonly meant the rate constant with which the complex forms. The IC50 is the point on the concentration scale where inhibition reaches its midpoint.

The target of test [1] is T1, recombinant human ErbB3/Fc fusion protein (human, UniProt P21860 20-643).
T1 construct: Bought (R&D Systems, Cat. No. 348-RB); the NRG1-α1 assay names Cat. No. 4518-RB instead; also called rhErbB3-Fc; rhErbB3/Fc; not shown: Fc portion of the bought fusion protein
The test can be described thus: ECL (MSD): NRG1-β1 (0.25 µg/ml) binding to plate-coated rhErbB3/Fc after antibody dilutions; the antibody enhances the NRG1-β1 signal. On the procedure: MA2400 96-well standard binding plates (Meso Scale Discovery, Cat. No. L15XA-6) were coated with 50 μl of 0.5 μg/mL rhErbB3/Fc (R&D systems, Cat. No. 348-RB) in PBS (Invitrogen, Cat. No. 14040-133) for overnight at 4° C. with no agitation. The plates then were washed 3 times with PBS+0.1% Tween20 (Sigma P5927) and blocked with 200 μl of PBS containing 5% BSA (Sera Care Life Sciences, Cat. No. AP-4510-80) for 1.5 hour at room temperature. After washing the plates 3 times with PBS, 25 μl of the antibody dilutions were added to the plates for another hour at room temperature with agitation. […] The plates then were washed 3 times with PBS, and 150 μl of 1× read buffer (Meso Scale Discovery, Cat. No. R92TC-1) was added to each well before the plates were analyzed on a Sector® Imager 2400 (Meso Scale Discovery) instrument.

Test [2] concerns the target T2, human ErbB3 (human, UniProt P21860 20-1342). As to the kind of experiment: cell-based or functional assay.
Test [3] has as its target T2, human ErbB3. The test can be described thus: cell-based or functional assay. This is another data set of the same source.
Test [4] addresses T1, recombinant human ErbB3/Fc fusion …. The test can be described thus: SPR Biacore T100, 25 C; antibody captured on anti-mouse IgG, rhErbB3-Fc injected. On the procedure:
Rabbit anti-mouse IgGs (Biacore, Cat. No. BR-1008-38) were immobilized on carboxymethylated dextran CM4 sensor chips (Biacore, Cat. No. BR-1005-34) by amine coupling (BIAcore, Cat. No. BR-1000-50) using a standard coupling protocol according to vendor's instructions. The analyses were performed at 25° C., using PBS (Invitrogen, Cat. No. 14040-133) containing 0.05% surfactant P20 (Biacore, Cat. No. BR-1000-54) as running buffer.
The antibodies were captured in individual flow cells at a flow rate of 10 μl/minute. Injection time was varied for each antibody to yield an Rₘₐₓ between 30 and 60 RU. […] The dissociation phase was monitored for up to 3600 seconds. The surface was then regenerated with two 60-seconds injection of 10 mM Glycine-HCl, pH 1.7 (made from Glycine pH 1.5 (Biacore, Cat. No. BR-1003-54) and pH 2.0 (Biacore, Cat. No. BR-1003-55)) at a flow rate of […].
Kinetic parameters were determined using the kinetic function of the BIAevaluation software (Biacore) with double reference subtraction. Kinetic parameters for each antibody, kₐ (association rate constant), kd (dissociation rate constant) and KD (equilibrium dissociation constant) were determined.
Background: SPR reads the build-up and loss of mass on a sensor chip optically.

Test [5] addresses T3, recombinant human ErbB3 monomeric protein (cleaved rhErbB3) (human, UniProt P21860 20-643, limits assumed).
T3 construct: Monomer made by protease cleavage of the Fc fusion; also called Monomeric ErbB3
As to the kind of experiment: SPR Biacore 37 C; purified antibody captured on anti-human Fc, cleaved rhErbB3 0.3125-5.0 nM. On the procedure:
The analyses were performed at 37° C. using PBS (Invitrogen, Catalog No. 14040-133) containing 0.05% surfactant P20 (Biacore, Catalog No. BR-1000-54) as running buffer.
The antibodies were captured in individual flow cells at a flow rate of […]. Injection time was varied for each antibody to yield an Rₘₐₓ between 30 and 60 RU. […] The dissociation phase was monitored for up to 1200 seconds. The surface was then regenerated with two 60 second injections of Glycine pH 2.25 (made from Glycine pH 2.0 (Biacore, Catalog No. BR-1003-55) and pH 2.5 (Biacore, Catalog No. BR-1003-56)) at […].
The binding affinities and kinetics of certain purified monoclonal antibodies were also determined. To further characterize certain antibodies, the surface plasmon resonance experiments described above were conducted using concentrations of cleaved rhErbB3 between 0.3125 nM and 5.0 nM (a 2-fold serial dilution).

In test [6] the target is T1, recombinant human ErbB3/Fc fusion …. As to the kind of experiment: ECL competition; inhibition of NRG1-β1 binding to plate-coated rhErbB3/Fc. The protocol: (§1) Multi-array 96-well standard binding plates (Meso Scale Discovery, Cat. No. L15XA-3) were coated with 50 μl of 0.5 μg/mL rhErbB3/Fc (R&D systems, Cat. No. 348-RB) in PBS (Invitrogen, Cat. No. 14040-133) for one hour at room temperature with no agitation. The plates then were washed three times with PBS+0.1% Tween20 (Sigma P5927) and blocked with 200 μl of 100% Horse Serum, heat inactivated (GIBCO, Cat. No. 26050-088) for 1.5 hours at room temperature. After washing the plates three times with PBS+0.1% Tween, 25 μl of the antibody dilutions were added to the plates for another hour at room temperature with agitation. […] The plates then were washed three times with PBS+0.1% Tween, and 150 μl of 1× read buffer (Meso Scale Discovery, Cat. No. R92TC-1) was added to each well before the plates were analyzed on a Sector® Imager 2400 (Meso Scale Discovery) instrument.

Test [7] has the same target. As to the kind of experiment: ECL (MSD) competition: rhErbB3/Fc coated on the plate, antibody dilutions, then NRG1-β1 at 0.25 µg/ml; bound NRG1-β1 detected. The protocol:
as §1

Test [8] addresses T3, recombinant human ErbB3 monomeric …. As to the kind of experiment: SPR Biacore 37 C; antibody captured on anti-human Fc, cleaved rhErbB3 (monomer) injected.
In test [9] the target is T1, recombinant human ErbB3/Fc fusion …. As to the kind of experiment: ECL (MSD) competition: rhErbB3/Fc coated on the plate, antibody dilutions, then NRG1-β1 at 0.25 µg/ml; bound NRG1-β1 detected. This is another data set of the same source.

Like-named read-outs stand apart in the source and are kept apart here. Some results are limits rather than exact numbers.

B1: 09D03 (antibody, mouse IgG2b, kappa, V domains shown)
VH: QVTLKESGPGILRPSQTLSLTCSFSGFSLSTFGLSVGWIRQPSGKGLEWLAHIWWDDDKYYNPALKSRLTISKDTSKNQVFLKIANVDTADTATYYCARIGADALPFDYWGQGTTLTVSS
VL: DIVLTQTAPSVPVTPGESVSISCRSSKSLLHSNGNTYLYWFLQRPGQSPQLLIYRMSNLASGVPDRFSGSGSGTAFTLRISRVEAEDVGVYYCMQHLEYPFTFGSGTKLEIKR
notes: Murine IgG2b/kappa, from hybridoma; also called anti-hErbB3 monoclonal antibody 09D03
In the case of B1, the “EC50 (read off the curve)” value in test [1] was ~1 nM. For the same molecule, the “IC50, NRG1-β1 dependent proliferation of MCF7 cells (MTT)” value in the test with human ErbB3 [2] was 2.28 nM. For the same molecule, in the test with human ErbB3 [3], the “inhibition of NRG1-β1 induced phosphorylation of Akt in MCF7 and DU145 cells (ELISA)” value was ≥ 80%; the “inhibition of NRG1-β1 induced phosphorylation of ErbB3 in SKBR-3 cells (ELISA, 5 µg/ml antibody)” value is ≥ 50%. Also, in test [4], the dissociation constant Kd is 0.08 nM, the koff was 2e-05 s⁻¹ and the kon came out at 270000 M⁻¹ s⁻¹.

B2: Sh24C05-25 N62S IgG1 (antibody)
heavy: not shown
light: DIQMTQSPSSLSASVGDRVTITCRASQEISGYLSWFQQKPGKAPKSLIYAASTLDSGVPSRFSGSGSGTDFTLTISSLQPEDFATYYCLQYDSYPYTFGQGTKLEIKRTVAAPSVFIFPPSDEQLKSGTASVVCLLNNFYPREAKVQWKVDNALQSGNSQESVTEQDSKDSTYSLSSTLTLSKADYEKHKVYACEVTHQGLSSPVTKSFNRGEC
notes: Humanized, human IgG1/kappa
Turning to B2, in test [5], the dissociation constant Kd was 0.16 nM, the off-rate (koff) was 0.00045 s⁻¹ and the kon was 2.9e+06 M⁻¹ s⁻¹. In test [6], the IC50 came out at 0.122 nM. For the same molecule, the “IC50 (read off the curve)” value in [7] is ~0.1 nM. Further, in the test with human ErbB3 [3], the “inhibition of phosphorylation of ErbB3 in exponentially growing SKBR-3 cells (ELISA)” value (shortened to “inhibition of phosphorylation of ErbB3”) was ≥ 50%.

B3: Sh24C05-25 N62S IgG2 (antibody)
heavy: QVQLVESGGGLVKPGGSLRLSCAASGFTFSDYAMSWIRQAPGKGLEWVSTISDGGTYTYYPDSVKGRFTISRDNAKNSLYLQMNSLRAEDTAVYYCAREWGDYDGFDYWGQGTLVTVSSASTKGPSVFPLAPCSRSTSESTAALGCLVKDYFPEPVTVSWNSGALTSGVHTFPAVLQSSGLYSLSSVVTVPSSNFGTQTYTCNVDHKPSNTKVDKTVERKCCVECPPCPAPPVAGPSVFLFPPKPKDTLMISRTPEVTCVVVDVSHEDPEVQFNWYVDGVEVHNAKTKPREEQFNSTFRVVSVLTVVHQDWLNGKEYKCKVSNKGLPAPIEKTISKTKGQPREPQVYTLPPSREEMTKNQVSLTCLVKGFYPSDIAVEWESNGQPENNYKTTPPMLDSDGSFFLYSKLTVDKSRWQQGNVFSCSVMHEALHNHYTQKSLSLSPGK
light: DIQMTQSPSSLSASVGDRVTITCRASQEISGYLSWFQQKPGKAPKSLIYAASTLDSGVPSRFSGSGSGTDFTLTISSLQPEDFATYYCLQYDSYPYTFGQGTKLEIKRTVAAPSVFIFPPSDEQLKSGTASVVCLLNNFYPREAKVQWKVDNALQSGNSQESVTEQDSKDSTYSLSSTLTLSKADYEKHKVYACEVTHQGLSSPVTKSFNRGEC
notes: Humanized, human IgG2/kappa
For B3, in test [5], the equilibrium dissociation constant (Kd) was determined as 0.12 nM, the dissociation rate constant (koff) was determined as 0.00034 s⁻¹ and the kon was 2.7e+06 M⁻¹ s⁻¹. Moreover, the IC50 in test [6] came to 0.112 nM. For the same molecule, the “IC50 (read off the curve)” value in test [7] is ~0.1 nM. In addition, in the test with human ErbB3 [3], the “inhibition of phosphorylation of ErbB3” value is ≥ 50%.

B4: Sh24C05-31 N62S IgG2 (antibody)
heavy: QVQLVESGGGLVKPGGSLRLSCAASGFTFSDYAMSWIRQAPGKGLEWVSTISDGGTYTYYPDSVKGRFTISRDNAKNSLYLQMNSLRAEDTAVYYCAREWGDYDGFDYWGQGTLVTVSSASTKGPSVFPLAPCSRSTSESTAALGCLVKDYFPEPVTVSWNSGALTSGVHTFPAVLQSSGLYSLSSVVTVPSSNFGTQTYTCNVDHKPSNTKVDKTVERKCCVECPPCPAPPVAGPSVFLFPPKPKDTLMISRTPEVTCVVVDVSHEDPEVQFNWYVDGVEVHNAKTKPREEQFNSTFRVVSVLTVVHQDWLNGKEYKCKVSNKGLPAPIEKTISKTKGQPREPQVYTLPPSREEMTKNQVSLTCLVKGFYPSDIAVEWESNGQPENNYKTTPPMLDSDGSFFLYSKLTVDKSRWQQGNVFSCSVMHEALHNHYTQKSLSLSPGK
light: DIQMTQSPSSLSASVGDRVTITCRASQEISGYLSWYQQKPGKAPKRLIYAASTLDSGVPSRFSGSGSGTEFTLTISSLQPEDFATYYCLQYDSYPYTFGQGTKLEIKRTVAAPSVFIFPPSDEQLKSGTASVVCLLNNFYPREAKVQWKVDNALQSGNSQESVTEQDSKDSTYSLSSTLTLSKADYEKHKVYACEVTHQGLSSPVTKSFNRGEC
notes: Humanized, human IgG2/kappa
Consider B4, for which, in test [5], the Kd was 0.074 nM, the off-rate (koff) is 0.00024 s⁻¹ and the kon was determined as 3.2e+06 M⁻¹ s⁻¹. Besides, in [6], the concentration for half-maximal inhibition (IC50) was 0.086 nM. Besides, in test [7], the “IC50 (read off the curve)” value is ~0.1 nM. Besides, the “inhibition of phosphorylation of ErbB3” value with human ErbB3 [3] is ≥ 50%.

B5: Sh24C05-31 N62S IgG1 (antibody)
heavy: not shown
light: DIQMTQSPSSLSASVGDRVTITCRASQEISGYLSWYQQKPGKAPKRLIYAASTLDSGVPSRFSGSGSGTEFTLTISSLQPEDFATYYCLQYDSYPYTFGQGTKLEIKRTVAAPSVFIFPPSDEQLKSGTASVVCLLNNFYPREAKVQWKVDNALQSGNSQESVTEQDSKDSTYSLSSTLTLSKADYEKHKVYACEVTHQGLSSPVTKSFNRGEC
notes: Humanized, human IgG1/kappa
Turning to B5, in test [5], the Kd is 0.076 nM, the koff was found to be 0.00027 s⁻¹ and the kon turned out to be 3.5e+06 M⁻¹ s⁻¹. For the same molecule, the 50% inhibitory concentration (IC50) in [6] was 0.124 nM. The “IC50 (read off the curve)” value in test [7] is ~0.1 nM. In test [8], the Kd was found to be 0.076 nM, the off-rate (koff) was 0.00027 s⁻¹ and the kon was 3.5e+06 M⁻¹ s⁻¹. For the same molecule, the “inhibition of phosphorylation of ErbB3” value in the test with human ErbB3 [3] is ≥ 50%.

B6: U1-53 (antibody, V domains shown)
VH: EVQLVESGGGLVQPGGSLRLSCAASGFTFSIYSMNWVRQAPGKGLEWVSYISSSSSTIYYADSVKGRFTISRDNAKNSLYLQMNSLRDEDTAVYYCARDRGDFDAFDIWGQGTMVTVSS
VL: DIQMTQSPSSLSASVGDRVTITCQASQDITNYLNWYQQKPGKAPKLLIYDASNLETGVPSRFSGSGSGTDFTFTISSLQPEDIATYNCQQCENFPITFGQGTRLEIK
For B6, in test [6], the IC50 worked out at 0.113 nM. For the same molecule, the “IC50 (read off the curve)” value in [9] was ~0.1 nM.

The record behind these values is patent US20180030149A1 (AVEO PHARMACEUTICALS, published 2018).
